Results taken from patent US20230279105A1 (SINGLE CELL TECHNOLOGY, published 2023).

B1: SCT-Fa174 (antibody, V domains shown)
VH: QVQLQQSGAELVKPGASVKLSCKASGYSITGYYIHWVKQRPGQGLEWIGWIYPGSGSIKYNEKFKGKATLTADTSSSTADMQLSSLTSEDSAVYYCAREAWGNWYFDVWGTGTTVTVSS
VL: DILLTQSPAILSVSPGERVSFSCRASQSIGTSIHWYQQRTNGSPRLLIKYASESISGIPSRFSGSGSGTDFTLSINSVESEDIADYYCQQSNSWPYTFGGGTKLEIK
notes: murine IgG
B2: SCT-Fa183 (antibody, V domains shown)
VH: QVQLQQSGAELVRPGTSVKVSCKASGYAFTNYLIEWVKQRPGQGLEWIGVISPGSGATTYNEKFKGKATLTADRSSTTAYMQLSSLTSEDSAVYFCARSAYGSPLDFWGQGTTLTVSS
VL: DILLTQSPDILSVSPGERVSFSCRASQNIGTSIHWYQQRTNGSPRLLIKYASESISGISSRFSGSGSGTDFTLSINSVESEDIADYYCQQSNNWPFTFGSGTKLEIK
notes: murine IgG
B3: SCT-Fa179 (antibody, V domains shown)
VH: QVQLQQSGAELVRPGTSVKVSCKASGYAFSNYLIEWVKQRPGQGLEWIGVINPGNGGTTYNEKFKDKATLTADRSSTTAYMQLSSLTSEDSAVFFCARTAYGSPLDYWGQGTTLTVSS
VL: DIKMTQSPSSMYASRGERVTITCKASQDINRYLSWLQQKPGKSPKTLIYRANRLVDGVPSRFSGSGSGQDYSLTISSLEYEDMGIYYCLQYDEFPYTFGGGTKLEIK
notes: murine IgG
B4: SCT-Fa182 (antibody, V domains shown)
VH: QVQLQQSGAELVRPGTSVKVSCKASGYAFTNYLIEWVKQRPGQGLEWIGVISPGSGATTYNEKFKGKATLTADRSSTTAYMQLSSLTSEDSAVYFCARSAYGSPLDFWGQGTTLTVSS
VL: DIKMTQSPSSMYASLGERVTITCKASQDINRYLSWFQQKPGKSPKTLIYRVNRLVDGVPLRFSGSGSGQDYSLTISSLDYEDMGIYYCQQYDEFPYTFGGGTKLEIK
notes: murine IgG
B5: SCT-Fa184 (antibody, V domains shown)
VH: QVQLQQSGAELVRPGTSVKVSCKASGYAFTNYLIEWVKQRPGQGLEWIGVISPGSGGTTYNEKFKGKATLTADKSSSTAYMQFSSLTSEDSAVYFCARSAYGHVFDYWGQGTTLTVSS
VL: DIKMTQSPSSIYASLGERVTITCKASQDINSYLKWFQQKPGKSPKTLIYRANRLVDGVPSRFSGSGSGQDYSLTISSLEYEDMGIYYCLQYDEFPYTFGGGTKLEIK
notes: murine IgG
B6: SCT-Fa185 (antibody, V domains shown)
VH: QVQLQQSGAELVRPGTSVRVSCTASGYAFTNYLIEWVKQRPGQGLEWIGVISPGSGGTTYNEKFKGKATLTADKSSSTAYMQFSSLTSEDSAVYFCARSAYGHVFDYWGQGTTLTVSS
VL: DIKMTQSPSSMYASLGERVTITCKASQDINSYLKWFQQKPGKSPKTLIYRANRLVDGVPSRFSGSGSGQDYSLTISSLEYEDMGIYYCLQYDEFPYTFGGGTKLEIK
notes: murine IgG
B7: SCT-Fa180 (antibody, V domains shown)
VH: QVQLQQSGAELVRPGTSVKVSCKASGYAFTNYLIEWAKQRPGQGLEWIGVINPGSGATTYNEKFKGRATLTADMSSTTAYMQLSSLTSEDSAVFFCARTAYGSPLDCWGQGTTLTVSS
VL: DIKMTQSPSSMYASLGERVTITCKASQDINRYLSWLQQKAGKSPKTLIYRENRLVEGVPSRFSGSGSGQDYSLTISSLEYEDMGIYYCLQYDEFPYTFGGGTKLEIK
notes: murine IgG
B8: SCT-Fa172 (antibody, V domains shown)
VH: QVQLQQSGAELARPGASVKLSCKASGYTFTSYGISWVKQRTGQGLEWIGEIYPRSGNTYYNEKFKGKATLTADKSSSTAYMELRSLTSEDSAVYFCARSTYGSSSYAMDYWGQGTSVTVSS
VL: DVLMTQTPLSLPVSLGDQASISCRSSQSIVHSNGNTYLEWYLQKPGQSPKLLIYKVSNRFSGVPDRFSGSGSGTDFTLKISRVEAEDLGVYYCFQGSHVPYTFGGGTKLEIK
notes: murine IgG
B9: SCT-Fa176 (antibody, V domains shown)
VH: QVQLQQSGAELVRPGASVTLSCKASGYTFTDFEMHWVKQTPVHGLEWIGAIDPETGGTAYNQKFKGKAILTADRSSSTAYMELRSLTSEDSAVYYCTRGIYYGNYGSAMDYWGQGTSVTVSS
VL: DVLMTQTPLSLPVSLGDQASISCRSSQSIVHSNGNTYLEWYLQKPGQSPKLLIYKVSNRFSGVPDRFSGSGSGTDFTLKISRVEAEDLGVYYCFQGSHAPLTFGAGTKLELK
notes: murine IgG
B10: SCT-Fa177 (antibody, V domains shown)
VH: QVQLQQSGAELVRPGASVTLSCKASGYTFTDYEMYWVKQTPVHGLEWIGVIDPETGGTAHDQKFKGKAILTADKSSSTAYMELRSLTSEDSAVYYCTRWAFWGQGTLVTVSA
VL: DVVMTQTPLSLPVSLGDQASISCRSSQSLVHSNGNTYLHWYLQKPGQSPKLLIYKVSNRFSGVPDRFSGSGSGTDFTLRISRVEADDLGVYFCSQSTHVPYTFGGGTKLEIK
notes: murine IgG
B11: SCT-Fa007 (antibody, V domains shown)
VH: EVKLVESEGGLVHPGSSMKLSCTASGFTFSDYYMAWVRQVPEKGLEWIANINFDGSGTYYLDSLKSRFIISRDNGKNILYLQMSGLKSEDTATYYCARLYDGYYAYWGQGTTLTVSS
VL: DVVMTQTPLSLPVSLGDQASISCRSSQSLVHSNGNTYLYWYLQKPGQSPKLLIYKVSNRFSGVPDRFSGSGSGTDFTLKISRVEAEDLGVYFCSQSTHVPLTFGAGTKLELK
notes: murine IgG
B12: SCT-Fa008 (antibody, V domains shown)
VH: EVKLVESEGGLVQLGSSMKLSCTASGFTFSDYYMAWVRQVPEKGLEWIANINFDGSGTYYLDSLKSRFIISRDNGKNILYLQMSGLKSEDTATYYCARLYDGYYAYWGQGTTLTVSS
VL: DVVVTQTPLSLPVSLGDQASISCRSSQSLVHSNGNTYLYWYLQKPGQSPKLLIYKVSNRFSGVPDRFSGSGSGTDFTLKISRVEAEDLGVYFCSQSTHVPLTFGAGTKLELK
notes: murine IgG
B13: SCT-Fa018 (antibody, V domains shown)
VH: EVKLVESEGGLVQPGSSMKLSCTASGFTFSDYYMAWVRQVPEKGLEWVANINFDGSSSYYLDSLKSRFIISRDNTKNILYLQMSSLKSEDTATYYCARLYDGYYAYWGQGTTLTVSS
VL: DVVMTQTPLSLPVSLGDQASISCRSSQSLIHSNGNTYLYWYLQKPGQSPTLLIYKVSNRFSGVPDRFSGSGSGTDFTLKISRVEAEDLGVYFCSQSTHVPLTFGAGSKLELK
notes: murine IgG
B14: SCT-Fa173 (antibody, V domains shown)
VH: QVQLQQSGAELMRPGASVTLSCKASGYTFPDYEMYWVKQTPVHGLEWIGVIDPETGGTAYNQKFEVKAILTADKSSNTAYMELRSLTSEDSAVYYCTRWAYWGQGTLVTVSA
VL: QIVLTQSPAIMSASLGERVTMTCTASSSVSSSYLHWYQQKPGSSPKLWVYSTSNLASGVPGRFSGSGSGTSYSLTISSMEAEDAATYYCHHYHRSPPTFGGGTKLEIK
notes: murine IgG
B15: SCT-Fa175 (antibody, V domains shown)
VH: QVQLQQSGAELVRPGASVTLSCKASGYTFSDYEMHWVKQTPVHGLEWIGVIDPETGDTAYNQKFKDKAVLTADKSSNTAYMELRSLTSEDSAVFFCTSNGYPEHWGQGTTLTVSS
VL: QIVLTQSPAIMSASLGERVTMTCTASSGVSSTYLHWYQQRPGSSPKLWIYSTSTLASGVPARFSGSGSGTSYSLTISSMEAEDAATYYCHQYHRSPLTFGAGTKLELK
notes: murine IgG
B16: SCT-Fa178 (antibody, V domains shown)
VH: QVQLQQSGAELVRPGASVTLSCKASGYTFTDYEMYWVKQTPVHGLEWIGVIDPETGGTAHDQKFKGKAILTADKSSSTAYMELRSLTSEDSAVYYCTRWAFWGQGTLVTVSA
VL: QIVLTQSPAIMSASLGERVTMTCTASSSVSSSYLHWYQQKPGSSPKLWVYSTSNLASGVPGRFSGSGSGTSYSLTISSMEAEDAATYYCHHYNRSPPTFGGGTKLEIK
notes: murine IgG
B17: SCT-Fa169 (antibody, V domains shown)
VH: QVQLQQPGTELVMPGASVNLSCKASGYTFTSYWMHWVKQRPGQGLEWIGEIDPSDSYANYNQNFKGKATLTVDKSSITAYMQLSSLTSEDSAVYYCARNYGSNYVGYFDYWGQGTTLTVSS
VL: DIQMTQTTSSLSASLGDRVTISCRASQDISNYLNWYQQKPDGTVKLLIYYTSRLHSGVPSRFSGSGSGTDYSLTISNLDQEDIATYFCQQEKTLPWTFGGGTKLEIK
notes: murine IgG
B18: SCT-Fa181 (antibody, V domains shown)
VH: QVQLQQSGAELVRPGTSVKVSCKASGYAFTNYLIEWVKQRPGQGLEWIGVINPGSGATNYNEKFKGKATLTADKSSSTAYMQLRSLASEDSAVYFCARRTTVVAPYAMDYWGQGTSVTVSS
VL: DIQMTQTTSSLSASLGDRVTISCRASQDISNYLNWYQQKPDGTVELLIYYTSRLHSGVPSRFSGSGSGTDYSLTISNLEQEDIATYFCQQGNTLPRTFGGGTKLEIK
notes: murine IgG
B19: SCT-Fa170 (antibody, V domains shown)
VH: QVQLQQSGAELARPGASVKLSCKASGYTFRSYGLSWVKQRTGQGLEWIGEIYPRSGNTYYNEKFKDRVTLTADKSSSAAYMELRSLTSEDSAVYFCARSTAVVAGGFDYWGQGTALTVSS
VL: DIVMTQSPSSLTVTAGEKVTMSCKSSQSLFNSRTQKNSLTWYQQKPGQPPKLLIFWASTRESGVPDRFTGSASGTDFTLTLSGVQAEDLAIYYCQNDYTYPWTFGGGTKLEIK
notes: murine IgG
B20: SCT-Fa171 (antibody, V domains shown)
VH: QVQLQQSGAELARPGASVKLSCKASGYTFTNYGISWVKQRTGQGLEWIGEIYPRSGNSYYNEKFKGKATLTADKSSSTAYMELRSLTSEDSAVYFCARSTAIVAGGFDYWGQGTTLTVSS
VL: DIVMTQSPSSLTVTAGEKVTMSCKSSQSLLNSRIQKNSLTWYQQKPGQPPKLLIYWASTRESGVPDRFTASGSGTDFTLTISSVQAEDLAVYYCQNDYTYPWTFGGGTKLEIK
notes: murine IgG
B21: SCT-Fa186 (antibody, V domains shown)
VH: QVQLQQSGPELARPGASVKLSCKASGYTFRSNGISWVKQRTGQGLEWIGEIYPRSGNIYYNEKVKDKATLTADKSSNTAYMAVRSLTSEDSAVYFCARSTTVVAGGFDFWGQGTVLTVSS
VL: DIVMTQSPSSLTVTAGEKVTMSCKSSQSLLNSRTQKNSLTWYQQKPGQPPKLLIYWASTRESGVPDRFTGSGSGTDFTLTISSVQAEDLAIYYCQNDYTYPWTFGGGTELEIK
notes: murine IgG

Molecular target: T1, Human TIM-3 Human Fc tagged protein (human, fluorescently labeled with HiLyte Fluor 555 (sites not given))
T1 construct: Bought construct; also called TIM-3 protein tagged with human Fc; ACROBiosystems catalog no: TM3-H5258
Assay: capture slide probed with labeled TIM-3-Fc;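 note: IgG from single CD138-enriched plasma cells, isolated from lymphocytes, immobilized on a derivatized glass slide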

Question: Does B1 bind?
Answer: binds

Question: Does B2 bind?
Answer: binds

Question: Does B3 bind?
Answer: binds

Question: Does B4 bind?
Answer: binds

Question: Does B5 bind?
Answer: binds

Question: Does B6 bind?
Answer: binds

Question: Does B7 bind?
Answer: binds

Question: Does B8 bind?
Answer: binds

Question: Does B9 bind?
Answer: binds

Question: Does B10 bind?
Answer: binds

Question: Does B11 bind?
Answer: binds

Question: Does B12 bind?
Answer: binds

Question: Does B13 bind?
Answer: binds

Question: Does B14 bind?
Answer: binds

Question: Does B15 bind?
Answer: binds

Question: Does B16 bind?
Answer: binds

Question: Does B17 bind?
Answer: binds

Question: Does B18 bind?
Answer: binds

Question: Does B19 bind?
Answer: binds

Question: Does B20 bind?
Answer: binds

Question: Does B21 bind?
Answer: binds
